The values below come from PMC6218510, “Step Sizes and Rate Constants of Single-headed Cytoplasmic Dynein Measured with Optical Tweezers” (Scientific Reports, 2018).

Data set [1] concerns the target microtubules (polymerized tubulin).
Data set [2] deals with T1, Nc1ncnc2c1ncn2[C@@H]1O[C@H](COP(=O)(O)OP(=O)(O)OP(=O)(O)O)[C@@H](O)[C@H]1O.
T1 construct: motor domain with short tail Gly1288-Glu4646 (384 kDa), N-terminal FLAG tag and BCCP kept; Sf9 baculovirus; monomer
Put plainly: optical tweezers, mean displacement of single-headed dynein against ATP. It counts as biochemical, Homo sapiens. Particulars: with microtubules (paclitaxel), pH 7.2, 25 mM PIPES, 25 mM K-acetate, 2 mM MgCl2, 25 °C, half of power stroke size.

The test system is the same in data set [3]. Put plainly: purified protein. It counts as biochemical, Homo sapiens. The settings on record: basal, no microtubules, 25 °C.
Data set [4] has as its target microtubules (polymerized tubulin). Put plainly: optical tweezers (single-trap assay); single GST-D384 molecules on a trapped bead, polarity-marked microtubules fixed on glass (amino-silane, glutaraldehyde), trap stiffness 16 fN/nm, 1 mM ATP; duty ratio calculated from the decay of peak force/displacement (run length), (1-rd)^2 = 0.26.
For data set [5] the target is unchanged. Put plainly: optical tweezers (single-trap assay) + other: in vitro motility assay; duty ratio calculated from the velocity of a single GST-D384 molecule at no load (387 nm/s) and the microtubule gliding velocity (481 nm/s) at 1 mM ATP.

In general, Km refers to the substrate concentration at which the rate is half of its maximum.

Chain of microtubules (polymerized tubulin) (chain, as listed by the source, chain 1 of 2): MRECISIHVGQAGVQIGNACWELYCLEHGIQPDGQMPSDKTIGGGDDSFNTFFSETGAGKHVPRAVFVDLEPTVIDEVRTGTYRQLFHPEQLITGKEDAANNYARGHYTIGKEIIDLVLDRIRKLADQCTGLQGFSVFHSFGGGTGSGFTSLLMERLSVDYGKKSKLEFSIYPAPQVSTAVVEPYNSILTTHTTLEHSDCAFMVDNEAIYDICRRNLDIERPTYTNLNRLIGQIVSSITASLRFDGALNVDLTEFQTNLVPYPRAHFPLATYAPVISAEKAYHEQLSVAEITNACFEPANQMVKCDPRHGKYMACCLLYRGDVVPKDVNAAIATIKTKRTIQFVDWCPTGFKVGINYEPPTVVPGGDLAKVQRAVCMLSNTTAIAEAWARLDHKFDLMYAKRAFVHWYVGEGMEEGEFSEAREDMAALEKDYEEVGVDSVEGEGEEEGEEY
Chain of microtubules (polymerized tubulin) (chain, as listed by the source, chain 2 of 2): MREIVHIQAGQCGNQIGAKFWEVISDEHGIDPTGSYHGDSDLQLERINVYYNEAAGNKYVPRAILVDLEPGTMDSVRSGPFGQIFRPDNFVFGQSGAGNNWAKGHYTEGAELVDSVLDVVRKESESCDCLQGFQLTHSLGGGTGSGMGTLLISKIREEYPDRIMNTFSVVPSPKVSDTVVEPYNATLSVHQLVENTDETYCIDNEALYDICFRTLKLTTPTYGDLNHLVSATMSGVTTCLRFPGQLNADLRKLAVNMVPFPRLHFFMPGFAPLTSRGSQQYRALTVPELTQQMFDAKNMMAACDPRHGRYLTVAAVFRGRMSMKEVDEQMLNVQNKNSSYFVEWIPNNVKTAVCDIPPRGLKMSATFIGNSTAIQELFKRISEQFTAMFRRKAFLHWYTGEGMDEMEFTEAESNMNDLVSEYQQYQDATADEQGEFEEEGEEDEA

As to “human cytoplasmic dynein monomer construct D384, Q14204 1288-4646”, the Km^MT: Michaelis-Menten constant for microtubules of the microtubule-stimulated ATPase of D384 (EnzChek phosphate assay, 35 nM dynein, 0-25 μM microtubules, 1 mM ATP, 25 °C) in data set [1] stood at 50 µM.

Regarding “D384 (single-headed human cytoplasmic dynein-1 motor domain) (Homo sapiens)”, in data set [2], the K0.5 is 17.6 ± 0.5 µM. In addition, in data set [3], the Km stood at 31 ± 4 µM.

Take “artificially dimerized dynein construct GST-D384, Q14204 1288-4646”: the duty ratio rd (fraction of time that each head spends attached to a microtubule) in data set [4] is 0.49; in data set [5], 0.59.
